Results as given in US7767415B2, “Compositions and methods for modifying blood cell carbohydrates” (Velico Medical, Inc., priority 2001, dated 2010).
Like-named read-outs stand apart in the source and are kept apart here.

How the values were obtained:
[1] = tested on: Recombinant coffee bean (Coffea canephora) α-galactosidase; conditions: apparent; pH 5.5, 26° C.; Zhu et al. 1995; cited from earlier work
[2] = tested on: Recombinant chicken liver α-N-acetylgalactosaminidase; conditions: apparent; pH 3.65, 37° C.; Zhu et al. 1996; cited from earlier work
[3] = tested on: R. torgues (Ruminococcus torques) α-N-acetylgalactosaminidase, isolated to apparent homogeneity; conditions: Hoskins et al. 1997; cited from earlier work
[4] = tested on: E. coli expressed recombinant α-N-acetylgalactosaminidase (New England BioLabs, catalog no. P0734B, proprietary strain); test: Apparent Km and Vmax with monosaccharide derivative (p-nitrophenol at 405 nm, Lineweaver-Burk), Table XI; format: biochemical; conditions: pH 7.0, 37° C.
Description: Commercial Recombinant α-N-Acetylgalactosaminidase (New England Biolabs): • vii) 0.5 mM as a starting concentration of αGalNAc p-nitrophenyl monosaccharide derivative in a tube containing 0.05 M Sodium phosphate buffer pH 7.0 was sequentially diluted 2 fold by mixing it with an equal volume of buffer. […] of enzyme was added to each tube and incubated for 10 min at 37° C. The reaction was quenched by adding an equal volume of 0.2 M sodium borate buffer (pH 9.8). The amount of the liberated p-nitrophenol was determined by measuring the absorbance at 405 nm.

[5] = tested on: E. coli expressed recombinant α-N-acetylgalactosaminidase (New England BioLabs, catalog no. P0734B, proprietary strain); test: Preliminary Km with tetrasaccharide AMC substrate (densitometric scans of substrate/product ratio); format: biochemical; conditions: assay unreliable at low concentrations, Km possibly even lower than 20 μM, read-out: Km for the blood group A oligosaccharide substrates
Description: (§1) The assay used for this determination involved densitometric scans of the substrate/product ratio using the tetrasaccharide AMC substrate (GalNAcα1-3(Fucα1-2)Galβ1-4GalNAc-AMC).

[6] = Dean and Sweeley 1979; cited from earlier work
[7] = Activity with blood group A tetrasaccharide AMC substrate (HPTLC); format: biochemical; conditions: for difference of specific activity, GalNAcα1-pNP versus A tetrasaccharide substrate: pH 3.65; for Specific activity with blood group A tetrasaccharide-AMC: pH 5.5
[8] = Activity with repetitive A heptasaccharide AMC substrate (HPTLC); format: biochemical
Description: FIG. 5b is an HPTLC analysis of five selected Streptomycete α-N-acetylgalactosaminidase activities with the blood group A tetrasaccharide (Panel B-1) and A heptasaccharide AMC (Panel B-2) substrate. Streptomycete strains identified by numbers as in Table VII. […] Reactions were incubated 180 min at 30° C., and 2.5 μl of the reaction mixture was spotted onto HPTLC and developed in CHCl3:methanol:H2O (60:35:8) and photographed. Migration of trisaccharide (H), and tetrasaccharide (A), heptasaccharide and hexasaccharide (H-A) AMC derivatives is indicated by arrows. NE, no enzyme control; rCHl-Az, recombinant Chicken liver A-zyme; Origin, sample application position. The appearance of a disaccharide AMC is due to contaminating α-fucosidase activity.
Aliquots of 2.5-3.0 μl were taken at different time points (0′, 15′, 30′, 60′) to follow product development. Product development was analyzed by HPTLC in chloroform-methanol-water (vol/vol/vol: 60/35/8) and visualized by UV or orcinol staining.

[9] = tested on: A1 red blood cells; test: Enzymatic conversion of A1 red blood cells, hemagglutination typing; format: cell-based, human; conditions: A1 donors; chicken enzyme 200 U/ml, 50% hematocrit, 37° C., 4 hours (protocols B, C)
Description: (§2) It is evident from the data in Table XII that apparent removal of A antigens is achieved, when defined by one particular anti-blood group A specific monoclonal antibody that is not approved for blood typing procedures (DAKO). A large number of such antibodies exist and, due to specificity and low affinity binding, they are inappropriate for serological typing purposes. Development of monoclonal cocktails for ABO routine typing to substitute previously used polyclonal antibody reagents was a major achievement for the blood bank industry in 1990s. […] Details of the typing assay used in this example is as follows: • Approved typing reagents used in hemagglutination assays were murine monoclonal antibodies and plant lectins obtained from Ortho Clinical Diagnostics, Raritan, N.J.; Gamma Biologicals/Immucor, Norcross, Ga. Non-approved reagents included murine monoclonal anti-A antibody from Dako and a panel of monoclonal antibodies to blood group A variants produced by H. Clausen (Clausen et al., Proc. Natl. Acad. Sci. USA 82(4): 1199-203, 1985, Clausen et al., J Biol Chem. 261(3): 1380-7, 1986, Clausen et al., Biochemistry 25(22): 7075-85, 1986, Clausen et al., J Biol Chem. 262(29): 14228-34, 1987). Typing reagents were used according to the manufacturers recommendations and other monoclonal antibodies as determined by titrations. Hemagglutination Assay (Room Temperature) 1. […]

[10] = Activity with blood group A tetrasaccharide AMC substrate (HPTLC); format: biochemical
Description: FIG. 10 illustrates the activity of E. coli expressed α-N-acetylgalactosaminidase with the blood group A tetrasaccharide AMC substrate at different pH. Assays were performed in reactions of 10 μl containing 1 nmole of α-tetra, 0.05 μg enzyme, and the buffer Na Citrate-NaPO4 at varying pH 2.6-8.0. Reactions were incubated 40 min at 26° C., and 3 μl samples analyzed by HPTLC. Panel A: HPTLC analysis; Panel B: Substrate cleavage quantified by scanning and plotted against pH.
Assays with Derivatized oligosaccharide substrates (AMC, OGr) were performed by the following procedure: • iii) One (AMC) or 5 (OGr) nmol substrate in reaction mixtures of a total volume of 10 μl containing 50 mM sodium citrate (pH 6.0) was incubated at 26° C. Aliquots of 2.5-3.0 μl were taken at different time points (0′, 15′, 30′, 60′) to follow product development. Product development was analyzed by HPTLC in chloroform-methanol-water (vol/vol/vol: 60/35/8) and visualized by UV or orcinol staining. […]
as §1

[11] = tested on: A2 red blood cells; test: Enzymatic conversion of A2 red blood cells, hemagglutination typing; format: cell-based, human; conditions: A2 donors; chicken enzyme 100-200 U/ml, protocols A-C (pH 7.4 or 5.5, 30-37° C., 180 min to 4 hours)
Description: as §2

[12] = cited from earlier work; for Specific activity with GalNAcα1-pNP: pH 3.65 (optimal pH)
[13] = listed as chicken α-N-acetylgalactosaminidase
[14] = listed as recombinant chicken α-N-acetylgalactosaminidase

Q: Which Km [1] does the source give for `O=[N+]([O-])c1ccc(O[C@H]2O[C@H](CO)[C@H](O)[C@H](O)[C@H]2O)cc1` [Galα1-pNP, p-nitrophenyl α-galactoside] here?
A: 363 µM

Q: And the Vmax [1]?
A: 46.9 U/mg^1

Q: Which results are given for `CC(=O)N[C@H]1[C@@H](Oc2ccc([N+](=O)[O-])cc2)O[C@H](CO)[C@H](O)[C@@H]1O` [GalNAcα1-pNP, p-nitrophenyl-α-D-N-acetylgalactosaminopyranoside]?
A: Km [2]: 827 µM; Vmax [2]: 60.9 U/mg^3; Km [3]: 2 to 8 mM; Km [4]: 10 to 50 µM; Vmax [4]: 3.3 U/mg^3

Q: With GalNAcα1-3(Fucα1-2)Galβ1-4GalNAc-AMC as the molecule, how does the Km [5] read?
A: ~20 µM

B1: human α-N-acetylgalactosaminidase: human α-N-acetylgalactosaminidase (alpha-galactosidase B), isolated, cloned and expressed (protein, UniProt P17050 18-411, looked up)
Alpha-N-acetylgalactosaminidas …: LDNGLLQTPPMGWLAWERFRCNINCDEDPKNCISEQLFMEMADRMAQDGWRDMGYTYLNIDDCWIGGRDASGRLMPDPKRFPHGIPFLADYVHSLGLKLGIYADMGNFTCMGYPGTTLDKVVQDAQTFAEWKVDMLKLDGCFSTPEERAQGYPKMAAALNATGRPIAFSCSWPAYEGGLPPRVNYSLLADICNLWRNYDDIQDSWWSVLSILNWFVEHQDILQPVAGPGHWNDPDMLLIGNFGLSLEQSRAQMALWTVLAAPLLMSTDLRTISAQNMDILQNPLMIKINQDPLGIQGRRIHKEKSLIEVYMRPLSNKASALVFFSCRTDMPYRYHSSLGQLNFTGSVIYEAQDVYSGDIISGLRDETNFTVIINPSGVVMWYLYPIKNLEMSQQ
Q: For B1, which pH optimum [6] is on record?
A: 3.5

B2: Recombinant Chicken Liver α-N-acetylgalactosaminidase: Chicken liver α-N-acetylgalactosaminidase, recombinant, expressed in P. pastoris; prior-art enzyme for A cell conversion (protein, UniProt Q90744 1-405, looked up)
Alpha-N-acetylgalactosaminidas …: LENGLARTPPMGWLAWERFRCNVNCREDPRQCISEMLFMEMADRIAEDGWRELGYKYINIDDCWAAKQRDAEGRLVPDPERFPRGIKALADYVHARGLKLDIYGDLGRLTCGGYPGTTLDRVEQDAQTFAEWGVDMLKLDGCYSSGKEQAQGYPQMARALNSTGRPIVYSCSWPAYQGGLPPKVNYTLLGEICNLWRNYDDIQDSWDSVLSIVDWFFTNQDVLQPFAGPGHWNDPDMLIIGNFGLSYEQSRSQMALWTIMAAPLLMSTDLRTISPSAKKILQNRLMIQINQDPLGIQGRRIIKEGSHIEVFLRPLSQAASALVFFSRRTDMPFRYTTSLAKLGFPMGAAYEVQDVYSGKIISGLKTGDNFTVIINPSGVVMWYLCPKALLIQQQAPGGPSRLPLL
Q: Which “difference of specific activity, GalNAcα1-pNP versus A tetrasaccharide substrate” value [7, 13] does the source give for B2 here?
A: over 100 fold

Q: And the “difference of specific activity, GalNAcα1-pNP versus A tetrasaccharide substrate” value [7, 14]?
A: 166 fold

Q: What about the “Specific activity with blood group A tetrasaccharide-AMC” value [7, 13] of the same molecule?
A: 0.2 U/mg

Q: And the “Specific activity with blood group A tetrasaccharide-AMC” value [7, 14]?
A: 0.2 U/mg

Q: What about the “Specific activity with repetitive A heptasaccharide-AMC” value ([8]; pH 3.65) of the same molecule?
A: 0.5 U/mg

Q: What about the “Specific activity with repetitive A heptasaccharide-AMC” value ([8]; pH 5.5) of the same molecule?
A: 0.4 U/mg

Q: What about the “specific activity with repetitive A type 3 AMC derivative (structure 6)” value ([8]; pH not stated) of the same molecule?
A: approximately 0.3 U/mg

Q: What about the “Agglutination, Dolichos biflorus, post enzyme treatment” value [9] of the same molecule?
A: 0

Q: What about the “pH optimum with the blood group A tetrasaccharide AMC substrate” value ([10]; not shown) of the same molecule?
A: 3.5-4.5

Q: What about the “Specific activity with blood group A tetrasaccharide-AMC” value ([10]; pH 3.65) of the same molecule?
A: 0.5 U/mg

Q: And the “Specific activity with blood group A tetrasaccharide-AMC” value ([10]; pH 3.65, listed as chicken α-N-acetylgalactosaminidase)?
A: 0.3 U/mg

Q: And the “Specific activity with blood group A tetrasaccharide-AMC” value ([10]; pH 3.65, listed as recombinant chicken α-N-acetylgalactosaminidase)?
A: 0.3 U/mg

Q: And the “Specific activity with blood group A tetrasaccharide-AMC” value ([10]; pH 5.5)?
A: 0.4 U/mg

Q: And the “specific activity with A type 2 tetrasaccharide AMC derivative (structure 3)” value ([10]; pH not stated)?
A: approximately 0.3 U/mg

Q: What about the “Agglutination, Dolichos biflorus, post enzyme treatment” value [11] of the same molecule?
A: 0

Q: What about the “specific activity using p-nitrophenyl αGalNAc as substrate” value ([12]; literature values, pH not stated) of the same molecule?
A: 51-56 U/mg

Q: What about the “Specific activity with GalNAcα1-pNP” value [12] of the same molecule?
A: 50 U/mg^3

Q: What about the “Specific activity with GalNAcα1-pNP” value [12, 13] of the same molecule?
A: approximately 50 U/mg

Q: And the “Specific activity with GalNAcα1-pNP” value [12, 14]?
A: approximately 50 U/mg
